Assay results from patent US20200277366A1 (UCB, published 2020).
Residue numbers refer to the chain shown, from its start.

Assays:
human IL-17A [1] = molecular target: T1, human IL-17A (human, UniProt Q16552 24-155); assay: SPR (Biacore T200), TrYbe 18B captured by anti-human F(ab')2, human IL-17A titrated 5 nM to 0.15625 nM; kd at the instrument's limit
T1 construct: also called hIL-17A
Procedure: (§1) BIA (Biamolecular Interaction Analysis) was performed using a Biacore T200 (GE Healthcare). Affinipure F(ab′)2 Fragment goat anti-human IgG, F(ab′)2 fragment specific (Jackson ImmunoResearch) was immobilised on a CM5 Sensor Chip via amine coupling chemistry to a capture level of ˜5000 response units (RUs). HBS-EP buffer (10 mM HEPES pH 7.4, 0.15 M NaCl, 3 mM EDTA, 0.05% Surfactant P20, GE Healthcare) was used as the running buffer with a flow rate of 10 μL/min. […] The surface was regenerated by 2×10 μL injection of 50 mM HCl, interspersed by a 5 μL injection of 5 mM NaOH at a flowrate of 10 μL/min. Background subtraction binding curves were analysed using the T200evaluation software (version 1.0) following standard procedures. Kinetic parameters were determined from the fitting algorithm.

cynomolgus serum albumin [2] = molecular target: T2, cynomolgus serum albumin (cynomolgus, UniProt A2V9Z4 25-608); assay: SPR (Biacore T200), TrYbe 18B captured; column head prints KD(nM), but the KD(M) column shows the value is in pM
T2 construct: also called Cynomolgus Albumin; CSA
Procedure: as §1, with “of […]. Background subtraction” for “of 10 μL/min. Background subtraction”

cynomolgus TNF-alpha [3] = molecular target: T3, cynomolgus TNF-alpha (cynomolgus, UniProt P79337 77-233); assay: as above
T3 construct: also called cyno TNF; cTNF
Procedure: as §1, with “of […]. Background subtraction” for “of 10 μL/min. Background subtraction”

cynomolgus IL-17F [4] = molecular target: T4, cynomolgus IL-17F (cynomolgus, UniProt G7P4V0 31-163); assay: as above
T4 construct: also called cyno IL-17F
T4 sequence: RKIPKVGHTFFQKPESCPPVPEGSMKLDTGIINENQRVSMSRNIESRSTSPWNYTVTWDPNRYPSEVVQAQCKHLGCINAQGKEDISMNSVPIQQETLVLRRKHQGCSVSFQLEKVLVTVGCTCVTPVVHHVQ
Procedure: as §1, with “of […]. Background subtraction” for “of 10 μL/min. Background subtraction”

cynomolgus IL-17A [5] = molecular target: T5, cynomolgus IL-17A (cynomolgus, UniProt A0A2K5TTB0 24-155); assay: SPR (Biacore T200), TrYbe 18B captured; column head prints KD(nM), but the KD(M) column shows the value is in pM; kd at the instrument's limit
T5 construct: also called cIL-17A; cynoIL-17A
Procedure: as §1, with “of […]. Background subtraction” for “of 10 μL/min. Background subtraction”

cynomolgus IL-17F [6] = molecular target: T4, cynomolgus IL-17F; assay: SPR (Biacore T200), TrYbe 18B captured by anti-human F(ab')2, cynomolgus IL-17F titrated 40 nM to 1.25 nM
Procedure: as §1, with “of […]. Background subtraction” for “of 10 μL/min. Background subtraction”

human IL-17F = molecular target: T6, human IL-17F (human, UniProt Q96PD4 31-163); assay: SPR (Biacore T200), TrYbe 18B captured by anti-human F(ab')2, human IL-17F titrated 10 nM to 0.3125 nM
T6 sequence (looked up): T4 sequence with E22G, T29I, K73R, H74N, L100V, V129I
Procedure: as §1

human serum albumin = molecular target: T7, human serum albumin (human, UniProt P02768 25-609); assay: SPR (Biacore T200), TrYbe 18B captured by anti-human F(ab')2, HSA titrated 100 nM to 3.125 nM
T7 construct: also called HSA; Human Albumin
Procedure: as §1

human IL-17A [7] = molecular target: T1, human IL-17A; assay: SPR (Biacore T200), TrYbe 18B captured by anti-human F(ab')2, human IL-17A titrated 5 nM to 0.15625 nM
Procedure: as §1

cynomolgus TNF-alpha [8] = molecular target: T3, cynomolgus TNF-alpha; assay: cell-based or functional assay
human TNF-alpha [9] = molecular target: T8, human TNF-alpha (human, UniProt P01375 77-233); assay: cell-based or functional assay
cynomolgus TNF-alpha [10] = molecular target: T3, cynomolgus TNF-alpha; assay: SPR (Biacore T200), TrYbe 18B captured by anti-human F(ab')2, cynomolgus TNF titrated 5 nM to 0.15625 nM
Procedure: as §1, with “of […]. Background subtraction” for “of 10 μL/min. Background subtraction”

murine TNF-alpha = molecular target: T9, murine TNF-alpha (mouse, UniProt P06804 80-235); assay: L929 cell killing assay with murine TNF-α (N=3); told in words
T9 construct: also called mouse TNF; Murine TNF-α
T9 sequence (looked up): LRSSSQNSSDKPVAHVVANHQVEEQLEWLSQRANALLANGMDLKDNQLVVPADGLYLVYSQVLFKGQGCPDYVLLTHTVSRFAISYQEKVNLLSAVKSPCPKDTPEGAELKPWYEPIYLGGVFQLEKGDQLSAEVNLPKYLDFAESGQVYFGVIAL

cynomolgus serum albumin [11] = molecular target: T2, cynomolgus serum albumin; assay: SPR (Biacore T200), TrYbe 18B captured by anti-human F(ab')2, cynomolgus albumin titrated 100 nM to 3.125 nM
Procedure: as §1, with “of […]. Background subtraction” for “of 10 μL/min. Background subtraction”

human TNF-alpha [12] = molecular target: T8, human TNF-alpha; assay: SPR (Biacore T200), TrYbe 18B captured by anti-human F(ab')2, human TNF titrated 5 nM to 0.15625 nM
Procedure: as §1

cynomolgus IL-17A [13] = molecular target: T5, cynomolgus IL-17A; assay: SPR (Biacore T200), TrYbe 18B captured by anti-human F(ab')2, cynomolgus IL-17A titrated 10 nM to 0.3125 nM
Procedure: as §1, with “of […]. Background subtraction” for “of 10 μL/min. Background subtraction”

human IL-17A [14] = molecular target: T1, human IL-17A; assay: SPR (Biacore T200), TrYbe 18B captured by anti-human F(ab')2, human IL-17A titrated 5 nM to 0.15625 nM; footnote: dissociation limited due to limit of the instrument
Procedure: as §1

cynomolgus IL-17A [15] = molecular target: T5, cynomolgus IL-17A; assay: SPR (Biacore T200), TrYbe 18B captured by anti-human F(ab')2, cynomolgus IL-17A titrated 10 nM to 0.3125 nM; footnote: dissociation limited due to limit of the instrument
Procedure: as §1, with “of […]. Background subtraction” for “of 10 μL/min. Background subtraction”

cynomolgus IL-17A [16] = molecular target: T5, cynomolgus IL-17A; assay: SPR (Biacore T200), TrYbe 18B captured by anti-human F(ab')2, cynomolgus IL-17A titrated 10 nM to 0.3125 nM; kd at the instrument's limit
Procedure: as §1, with “of […]. Background subtraction” for “of 10 μL/min. Background subtraction”

Kd (human IL-17A [1]): ≤ 1.81 pM
Kd (cynomolgus serum albumin [2]): 2720 pM
Kd (cynomolgus TNF-alpha [3]): 7.16 pM
Kd (cynomolgus IL-17F [4]): 288 pM
Kd (cynomolgus IL-17A [5]): 5.99 pM
Kd (cynomolgus IL-17F [6]): 288 pM
koff (cynomolgus IL-17F [6]): 0.000167 s⁻¹
kon (cynomolgus IL-17F [6]): 582000 M⁻¹ s⁻¹
Kd (human IL-17F): 7.51 pM
koff (human IL-17F): 3.8e-05 s⁻¹
kon (human IL-17F): 5.06e+06 M⁻¹ s⁻¹
Kd (human serum albumin): 1740 pM
koff (human serum albumin): 0.000135 s⁻¹
kon (human serum albumin): 77500 M⁻¹ s⁻¹
kon (human IL-17A [7]): 5.52e+06 M⁻¹ s⁻¹
Kd (cynomolgus TNF-alpha [10]): 7.16 pM
koff (cynomolgus TNF-alpha [10]): 6.38e-05 s⁻¹
kon (cynomolgus TNF-alpha [10]): 8.9e+06 M⁻¹ s⁻¹
Kd (cynomolgus serum albumin [11]): 2720 pM
koff (cynomolgus serum albumin [11]): 0.000159 s⁻¹
kon (cynomolgus serum albumin [11]): 58300 M⁻¹ s⁻¹
Kd (human TNF-alpha [12]): 11.6 pM
koff (human TNF-alpha [12]): 6.43e-05 s⁻¹
kon (human TNF-alpha [12]): 5.54e+06 M⁻¹ s⁻¹
kon (cynomolgus IL-17A [13]): 1.67e+06 M⁻¹ s⁻¹
koff (human IL-17A [14]): ≤ 1e-05 s⁻¹
koff (cynomolgus IL-17A [15]): ≤ 1e-05 s⁻¹
Kd (cynomolgus IL-17A [16]): ≤ 5.99 pM
B1: Fab496.g3-(HC)dsscFv(HL)2109 / Fab496.g3-(LC)dsscFv(HL)645 (TrYbe 18B) (other)
heavy: EVQLVESGGGLVQPGGSLRLSCAASGFTFSDYNMAWVRQAPGKGLEWVATITYEGRNTYYRDSVKGRFTISRDNAKNSLYLQMNSLRAEDTAVYYCASPPQYYEGSIYRLWFAHWGQGTLVTVSSASTKGPSVFPLAPSSKSTSGGTAALGCLVKDYFPEPVTVSWNSGALTSGVHTFPAVLQSSGLYSLSSVVTVPSSSLGTQTYICNVNHKPSNTKVDKKVEPKSCSGGGGSGGGGSEVQLVESGGGLVKPGGSLRLSCAASGYTFTDNYIHWVRQAPGKCLEWIGYINPSSAYAHYNEKFKTRFTISVDKAKNSAYLQMNSLRAEDTAVYYCTRRYYSAMPFAYWGQGTLVTVSSGGGGSGGGGSGGGGSGGGGSDIQMTQSPSSLSASVGDRVTITCRASEDIYSGLAWYQQKPGKVPKLLIYDSSTLHTGVPSRFSGTGSGTDYTLTISSLQPEDVATYFCQQNYDFPLTFGCGTKLEIKRT
light: AIQLTQSPSSLSASVGDRVTITCRADESVRTLMHWYQQKPGKAPKLLIYLVSNSEIGVPDRFSGSGSGTDFRLTISSLQPEDFATYYCQQTWSDPWTFGQGTKVEIKRTVAAPSVFIFPPSDEQLKSGTASVVCLLNNFYPREAKVQWKVDNALQSGNSQESVTEQDSKDSTYSLSSTLTLSKADYEKHKVYACEVTHQGLSSPVTKSFNRGECSGGGGSGGGGSEVQLLESGGGLVQPGGSLRLSCAVSGIDLSNYAINWVRQAPGKCLEWIGIIWASGTTFYATWAKGRFTISRDNSKNTVYLQMNSLRAEDTAVYYCARTVPGYSTAPYFDLWGQGTLVTVSSGGGGSGGGGSGGGGSGGGGSDIQMTQSPSSVSASVGDRVTITCQSSPSVWSNFLSWYQQKPGKAPKLLIYEASKLTSGVPSRFSGSGSGTDFTLTISSLQPEDFATYYCGGGYSSISDTTFGCGTKVEIKRT
notes: Tri-specific Fab-2xdsscFv (TrYbe) with no Fc; Stably expressed in CHO; also called Fab496.g3-(HC)dsHLscFv2109 (LC)dsHLscFv645
Mean EC50, L929 cell survival (CellTiter-Glo) with Actinomycin D and cynomolgus TNF-α (cynomolgus TNF-alpha [8]): 4.97 pM
Mean EC50, L929 cell survival (CellTiter-Glo) with Actinomycin D and human TNF-α (human TNF-alpha [9]): 5.87 pM
binding result (murine TNF-alpha): no binding
